Values belong to the substance of their own block, whether it stands above or below them.
Tests used:
[1] = biological target: recombinant KIR2DL1 protein (entire extracellular domain, produced in E. coli, refolded) (human) (UniProt P43626); assay: BIAcore, second Ab on KIR2DL1 chip with first Ab (competitor) 1-6F1 bound
[2] = biological target: recombinant KIR2DL3 protein (entire extracellular domain, produced in E. coli, refolded) (human) (UniProt P43628); assay: BIAcore competition on KIR2DL3 chip; first Ab Pan2D, second Ab (competitor) DF200
[3] = biological target: recombinant KIR2DL3 protein (entire extracellular domain, produced in E. coli, refolded) (human) (UniProt P43628); assay: BIAcore, second Ab on KIR2DL3 chip with first Ab (competitor) 1-6F1 bound
[4] = biological target: recombinant KIR2DL1 protein (entire extracellular domain, produced in E. coli, refolded) (human) (UniProt P43626); assay: BIAcore competition on KIR2DL1 chip; first Ab Pan2D, second Ab (competitor) EB6
[5] = biological target: recombinant KIR2DL1 protein (entire extracellular domain, produced in E. coli, refolded) (human) (UniProt P43626); assay: BIAcore, direct binding of second Ab to KIR2DL1 chip (field of first Ab 1-7F9)
[6] = biological target: recombinant KIR2DL3 protein (entire extracellular domain, produced in E. coli, refolded) (human) (UniProt P43628); assay: BIAcore, direct binding of second Ab to KIR2DL3 chip (field of first Ab 1-7F9)
[7] = biological target: recombinant KIR2DL3 protein (entire extracellular domain, produced in E. coli, refolded) (human) (UniProt P43628); assay: BIAcore, second Ab on KIR2DL3 chip with first Ab (competitor) 1-6F5 bound
immobilized KIR2DS1 [8] = biological target: immobilized KIR2DS1 (UniProt Q14954); assay: BIAcore, second Ab on KIR2DS1 chip with first Ab (competitor) 1-7F9 bound
[9] = biological target: recombinant KIR2DL1 protein (entire extracellular domain, produced in E. coli, refolded) (human) (UniProt P43626); assay: BIAcore, second Ab on KIR2DL1 chip with first Ab (competitor) 1-6F5 bound
[10] = biological target: KIR2DL1(R131W)-hFc (human) (UniProt P43626); assay: ELISA, KIR2DL1(R131W)-hFc captured via goat anti-human antibodies, mAb titrated, peroxidase anti-mouse, A450 [panel pan2D]
[11] = biological target: recombinant KIR2DL1 protein (entire extracellular domain, produced in E. coli, refolded) (human) (UniProt P43626); assay: BIAcore competition on KIR2DL1 chip; first Ab Pan2D, second Ab (competitor) 1-4F1
immobilized KIR2DS1 [12] = biological target: immobilized KIR2DS1 (UniProt Q14954); assay: BIAcore competition on KIR2DS1 chip; first Ab Pan2D, second Ab (competitor) 1-4F1
[13] = biological target: recombinant KIR2DL3 protein (entire extracellular domain, produced in E. coli, refolded) (human) (UniProt P43628); assay: BIAcore competition on KIR2DL3 chip; first Ab Pan2D, second Ab (competitor) 1-4F1
immobilized KIR2DS1 [14] = biological target: immobilized KIR2DS1 (UniProt Q14954); assay: BIAcore competition on KIR2DS1 chip; first Ab Pan2D, second Ab (competitor) 1-7F9
[15] = biological target: recombinant KIR2DL1 protein (entire extracellular domain, produced in E. coli, refolded) (human) (UniProt P43626); assay: BIAcore competition on KIR2DL1 chip; first Ab Pan2D, second Ab (competitor) DF200
[16] = biological target: recombinant KIR2DL1 protein (entire extracellular domain, produced in E. coli, refolded) (human) (UniProt P43626); assay: BIAcore, second Ab on KIR2DL1 chip with first Ab (competitor) 1-7F9 bound
[17] = biological target: recombinant KIR2DL3 protein (entire extracellular domain, produced in E. coli, refolded) (human) (UniProt P43628); assay: BIAcore competition on KIR2DL3 chip; first Ab Pan2D, second Ab (competitor) 1-6F1
[18] = biological target: recombinant KIR2DL3 protein (entire extracellular domain, produced in E. coli, refolded) (human) (UniProt P43628); assay: BIAcore, second Ab on KIR2DL3 chip with first Ab (competitor) 1-4F1 bound
[19] = biological target: recombinant KIR2DL1 protein (entire extracellular domain, produced in E. coli, refolded) (human) (UniProt P43626); assay: BIAcore, direct binding of second Ab to KIR2DL1 chip (field of first Ab 1-6F5)
[20] = biological target: recombinant KIR2DL1 protein (entire extracellular domain, produced in E. coli, refolded) (human) (UniProt P43626); assay: BIAcore, direct binding of second Ab to KIR2DL1 chip (field of first Ab 1-6F1)
[21] = biological target: recombinant KIR2DL1 protein (entire extracellular domain, produced in E. coli, refolded) (human) (UniProt P43626); assay: BIAcore competition on KIR2DL1 chip; first Ab Pan2D, second Ab (competitor) 1-6F1
[22] = biological target: recombinant KIR2DL3 protein (entire extracellular domain, produced in E. coli, refolded) (human) (UniProt P43628); assay: BIAcore, direct binding of second Ab to KIR2DL3 chip (field of first Ab 1-6F1)
[23] = biological target: recombinant KIR2DL3 protein (entire extracellular domain, produced in E. coli, refolded) (human) (UniProt P43628); assay: BIAcore, second Ab on KIR2DL3 chip with first Ab (competitor) 1-7F9 bound
[24] = biological target: recombinant KIR2DL3 protein (entire extracellular domain, produced in E. coli, refolded) (human) (UniProt P43628); assay: BIAcore competition on KIR2DL3 chip; first Ab Pan2D, second Ab (competitor) 1-7F9
immobilized KIR2DS1 [25] = biological target: immobilized KIR2DS1 (UniProt Q14954); assay: BIAcore competition on KIR2DS1 chip; first Ab Pan2D, second Ab (competitor) DF200
[26] = biological target: recombinant KIR2DL1 protein (entire extracellular domain, produced in E. coli, refolded) (human) (UniProt P43626); assay: BIAcore competition on KIR2DL1 chip; first Ab Pan2D, second Ab (competitor) 1-7F9
immobilized KIR2DS1 [27] = biological target: immobilized KIR2DS1 (UniProt Q14954); assay: BIAcore, direct binding of second Ab to KIR2DS1 chip (field of first Ab 1-7F9)
[28] = biological target: recombinant KIR2DL3 protein (entire extracellular domain, produced in E. coli, refolded) (human) (UniProt P43628); assay: BIAcore, direct binding of second Ab to KIR2DL3 chip (field of first Ab 1-4F1)
[29] = biological target: recombinant KIR2DL3 protein (entire extracellular domain, produced in E. coli, refolded) (human) (UniProt P43628); assay: BIAcore competition on KIR2DL3 chip; first Ab Pan2D, second Ab (competitor) gl183
[30] = biological target: recombinant KIR2DL3 protein (entire extracellular domain, produced in E. coli, refolded) (human) (UniProt P43628); assay: BIAcore, direct binding of second Ab to KIR2DL3 chip (field of first Ab 1-6F5)
[31] = biological target: recombinant KIR2DL3 protein (entire extracellular domain, produced in E. coli, refolded) (human) (UniProt P43628); assay: BIAcore competition on KIR2DL3 chip; first Ab Pan2D, second Ab (competitor) 1-6F5
[32] = biological target: recombinant KIR2DL1 protein (entire extracellular domain, produced in E. coli, refolded) (human) (UniProt P43626); assay: BIAcore competition on KIR2DL1 chip; first Ab Pan2D, second Ab (competitor) 1-6F5
[33] = biological target: recombinant KIR2DL1 protein (entire extracellular domain, produced in E. coli, refolded) (human) (UniProt P43626); assay: BIAcore, second Ab on KIR2DL1 chip with first Ab (competitor) EB6 bound
[34] = biological target: recombinant KIR2DL1 protein (entire extracellular domain, produced in E. coli, refolded) (human) (UniProt P43626); assay: BIAcore, direct binding of second Ab to KIR2DL1 chip (field of first Ab EB6)
[35] = biological target: recombinant KIR2DL1 protein (entire extracellular domain, produced in E. coli, refolded) (human) (UniProt P43626); assay: BIAcore competition on KIR2DL1 chip; first Ab EB6, second Ab (competitor) EB6
[36] = biological target: recombinant KIR2DL1 protein (entire extracellular domain, produced in E. coli, refolded) (human) (UniProt P43626); assay: BIAcore competition on KIR2DL1 chip; first Ab EB6, second Ab (competitor) Pan2D
[37] = biological target: recombinant KIR2DL1 protein (entire extracellular domain, produced in E. coli, refolded) (human) (UniProt P43626); assay: BIAcore competition on KIR2DL1 chip; first Ab EB6, second Ab (competitor) DF200
[38] = biological target: recombinant KIR2DL1 protein (entire extracellular domain, produced in E. coli, refolded) (human) (UniProt P43626); assay: BIAcore competition on KIR2DL1 chip; first Ab EB6, second Ab (competitor) 1-6F1
[39] = biological target: recombinant KIR2DL1 protein (entire extracellular domain, produced in E. coli, refolded) (human) (UniProt P43626); assay: BIAcore competition on KIR2DL1 chip; first Ab EB6, second Ab (competitor) 1-7F9
[40] = biological target: recombinant KIR2DL1 protein (entire extracellular domain, produced in E. coli, refolded) (human) (UniProt P43626); assay: BIAcore competition on KIR2DL1 chip; first Ab EB6, second Ab (competitor) 1-4F1

RU, binding with first Ab present (RU2) [1]: 440 RU
% inhibition of second Ab binding by first Ab [2]: 95%
RU, binding with first Ab present (RU2) [3]: 1090 RU
% inhibition of second Ab binding by first Ab [4]: 90%
RU, direct binding (RU1) [5]: 545 RU
RU, direct binding (RU1) [6]: 870 RU
RU, binding with first Ab present (RU2) [7]: 950 RU
RU, binding with first Ab present (RU2) (immobilized KIR2DS1 [8]): 1200 RU
RU, binding with first Ab present (RU2) [9]: 440 RU
EC50 (read off the curve) [10]: 20 nM
% inhibition of second Ab binding by first Ab [11]: 95%
% inhibition of second Ab binding by first Ab (immobilized KIR2DS1 [12]): 100%
% inhibition of second Ab binding by first Ab [13]: 68%
% inhibition of second Ab binding by first Ab (immobilized KIR2DS1 [14]): 45%
% inhibition of second Ab binding by first Ab [15]: 90%
RU, binding with first Ab present (RU2) [16]: 534 RU
% inhibition of second Ab binding by first Ab [17]: 8%
RU, binding with first Ab present (RU2) [18]: 890 RU
RU, direct binding (RU1) [19]: 475 RU
RU, direct binding (RU1) [20]: 475 RU
% inhibition of second Ab binding by first Ab [21]: 12%
RU, direct binding (RU1) [22]: 990 RU
RU, binding with first Ab present (RU2) [23]: 830 RU
% inhibition of second Ab binding by first Ab [24]: 15%
% inhibition of second Ab binding by first Ab (immobilized KIR2DS1 [25]): 100%
% inhibition of second Ab binding by first Ab [26]: 2%
RU, direct binding (RU1) (immobilized KIR2DS1 [27]): 1350 RU
RU, direct binding (RU1) [28]: 2400 RU
% inhibition of second Ab binding by first Ab [29]: 85%
RU, direct binding (RU1) [30]: 990 RU
% inhibition of second Ab binding by first Ab [31]: 18%
% inhibition of second Ab binding by first Ab [32]: 13%
Substance: monoclonal antibody NKVSF1

RU, binding with first Ab present (RU2) [1]: 320 RU
RU, binding with first Ab present (RU2) [33]: 200 RU
RU, direct binding (RU1) [5]: 460 RU
RU, direct binding (RU1) [34]: 460 RU
% inhibition of second Ab binding by first Ab [35]: 57%
RU, binding with first Ab present (RU2) [16]: 180 RU
RU, direct binding (RU1) [20]: 260 RU
% inhibition of second Ab binding by first Ab [36]: 40%
% inhibition of second Ab binding by first Ab [37]: 60%
% inhibition of second Ab binding by first Ab [38]: 23%
% inhibition of second Ab binding by first Ab [39]: 65%
% inhibition of second Ab binding by first Ab [40]: 48%
Substance: EB6 (IgG1 anti KIR2DL1) (antibody)
